Experimental data reported in the RNAGym collection of RNA variant scans (doi:10.1073/pnas.2313332121).
This sample holds only a part of the variants without activity.

B1: TPR 5TU (parent)
chain: GGAUCUUCUCGAUCUAACAAAAAAGACAAAUCUGCCACAAAGCUUGAGAGCAUCUUCGGAUGCAGAGGCGGCAGCCUUCGGUGGCGCGAUAGCGCCAACGUUCUCAACUAUGACACGCAAAACGCGUGCUCCGUUGAAUGGAGUUUAUCAUG

Variants of: B1
Test: polymerase ribozyme fitness, log enrichment relative to wild type (log ratio); higher = more active; in vitro selection for triplet polymerase activity
In short: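 Fitness compares each genotype's enrichment to that of the wild type on a logarithmic scale, averaging replicates with inverse-variance weights. The logarithm is base 2. Enrichment came from Illumina sequencing of input and output libraries after one triplicate round of in vitro selection, which included frozen incubation at −7 °C, of PCR-built, transcribed mutant libraries of each subunit of a heterodimeric triplet polymerase ribozyme. Only genotypes with ≥10 input reads and ≥1 read per output were kept.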

First: GGAUCUUCUCGAUCUAACAAAAAAGACAAAUCUGCCACAAAGCUUGAGAGCAUCUUCGGAUGCAGAGGCGGCAGCCUUCGGGGGCGCGAUAGCUCCAACGUUCUCAACUAUGACACGCAAAACGCGUGCUCCGUUGAAUGGAGUUUAUCAUG
Second: GGAUCUUCUCGAUCUAACAAAAAAGACAAAUCUGCCACAAAGCUUGAGAGCAUCUUCGGAUGCAGAGGCGGCAGCCUUCGGUAGCGCGAUAGCGCCAACGUUCUCAACUAUGACGCGCAAAACGCGUGCUCCGUUGAAUGGAGUUUAUCGUG
The “polymerase ribozyme fitness (log ratio)” value of the first is higher: -0.833 for the first, -2.88 for the second.

Going from GGAUCUUCUCGAUCUAACAAAAAAGACAAAUCUGCCACAAAGCUUGAGAGCAUCUUCGGAUGCAGAGGCGGCAGCCUUCGGGGGCGCGAUAGCGCUAACGUUCUCAACUAUGACACGCAAAACGCGUGCUCCGUUGAAUGGAGUUUAUCAUG to GGAUCUUCUCGAUCUAACAAAAAAGACAAAUCUGCCACAAAGCUUGAGAGCAUCUUCGGAUGCAGAGGCGGCAGCCUUCGGGGGCGCGAUAGCGCCAACGUUCUCAACUAUGACACGCAAAACGGGUGCUCCGUUGAAUGGAGUUUAUCAUG, the “polymerase ribozyme fitness (log ratio)” value rises from -2.13 to -1.76.

First: GGAUCUUCUCGAUCUAACAAAAAAGACAAAUCUGCCACAAAGCUUGAGAGCAUCUUCGGAUGCAGAGGCGGCAGCCUUCGGUAGUGCGAUAGCGCCAACGUUCUCAACUAUGACACGCAAAACGCGUGCUCCGUUGAAUGGAGUUUAUCAUG
Second: GGAUCUUCUCGAUCUAACAAAAAAGACAAAUCUGCCACAAAGCUUGAGAGCAUCUUCGGAUGCAGAGGCGGCAGCCUUCGGUAGCGCGAUAGCGCCUUCGUUCUCAACUAUGACACGCAAAACGCGUGCUCCGUUGAUUGGAGUUUAUCAUG
The “polymerase ribozyme fitness (log ratio)” value of the first is higher: -1.94 for the first, -4.07 for the second.

GGAUCUUCUCGAUCUAACAAAAAAGACAAAUCUGCCACAAAGCUUGAGAGCAUCUUCGGAUGCAGAGGCGGCAGCCUUCGGGGACUCGAUAGCGCCAACGUUCUCAACUAUGACACGGAAAACGCGUGCUCCGUUGAAUGGAGUUUAUCAUG and GGAUCUUCUCGAUCUAACAAAAAAGACAAAUCUGCCACAAAGCUUGAGAGCAUCUUCGGAUGCAGAGGCGGCAGCCUUCGGUAGCGCGAUGGUGCCAACGUUCUCAACUAUGACACGCAAAACGCGUGCUCCGUUGAAUGGAGUUUAUAAUG cannot be ordered by “polymerase ribozyme fitness (log ratio)” value: at most -4.2 for the first, at most -4.2 for the second.

Going from GGAUCUUCUCGAUCUAACAAAAAAGACAAAUCUGCCACAAAGCUUGAGAGCAUCUUCGGAUGCAGAGGCGGCAGCCUUCGGUAGCGCGAUAGCGCCAACGUUCUCAACUAUGACACGCCAAACGCGUGCUCCGUUGAAUGGAGUUUAUCAUG to GGAUCUUCUCGAUCUAACAAAAAAGACAAAUCUGCCACAAAGCUUGAGAGCAUCUUCGGAUGCAGAGGCGGCAGCCUUCGGGGGCGCGAUAUCGCCAACGUUCUCAACUAUGACACGCAAAACGCGUGCUACGUUGAAUGGAGUUUAUCAUG, the “polymerase ribozyme fitness (log ratio)” value falls from -2.44 to -3.24.

Compared with GGAUCUUCUCGAUCUAACAAAAAAGACAAAUCUGCCACAAAGCUUGAGAGCAUCUUCGGAUGCAGAGGCGGCAGCCUUCGGUAGCGCGAUAGCGCCAACGUUCUCAACUAUGACACGCCAAACGCGUGCUCCGUUGGAUGGAAUUUAUCAUG, GGAUCUUCUCGAUCUAACAAAAAAGACAAAUCUGCCACAAAGCUUGAGAGCAUCUUCGGAUGCAGAGGCGGCAGCCUUCGGGGGCGCGAUAGCGCCAACGUUCUCAACUAUGACACGCAAAACGCGUUCUCCGUUGAAUGGAGUUUAUCAUG is lower in “polymerase ribozyme fitness (log ratio)” value: -2.54 for the first, -3.35 for the second.

Going from GGAUCUUCUCGAUCUAACAAAAAAGACAAAUCUGCCACAAAGCUUGAGAGCAUCUUCGGAUGCAGAGGCGGCAGCCUUCGGGGACGCGAUAGCGCCAACGUUCUCAACUAUGACACGCAAAACGCGUGCUCCGUUGAAUGGAGUCUAUCAUG to GGAUCUUCUCGAUCUAACAAAAAAGACAAAUCUGCCACAAAGCUUGAGAGCAUCUUCGGAUGCAGAGGCGGCAGCCUUCGGUAGCGCGAUAGCGCCAACGUUCUCAACUCUGACACGCAAAAGGCGUGCUCCGUUGAAUGGAGUUUAUCAUG, the “polymerase ribozyme fitness (log ratio)” value falls from -0.385 to at most -4.2.

Going from GGAUCUUCUCGAUCUAACAAAAAAGACAAAUCUGCCACAAAGCUUGAGAGCAUCUUCGGAUGCAGAGGCGGCAGCCUUCGGGGGCGCGAUAGCGCUAACGUUCUCAACUAUGACACGCAAAACGCGUGCUCCGUUGCAUGGAGUUUAUCAUG to GGAUCUUCUCGAUCUAACAAAAAAGACAAAUCUGCCACAAAGCUUGAGAGCAUCUUCGGAUGCAGAGGCGGCAGCCUUCGGGGGCGCGAUAACGCCAACGUUCUCAACUAUGACACGCAAAACGCGUGCUCCGUUGAAUGGAGUUUAUCAUG, the “polymerase ribozyme fitness (log ratio)” value rises from -3.87 to -2.96.

First: GGAUCUUCUCGAUCUAACAAAAAAGACAAAUCUGCCACAAAGCUUGAGAGCAUCUUCGGAUGCAGAGGCGGCAGCCUUCGGGGGCUCGAUAGCGCCAACGUUCUCAACUAUGACACGCAAAAUGCGUGCUCCGUUGAAUGGAGUUUAUCAUG
Second: GGAUCUUCUCGAUCUAACAAAAAAGACAAAUCUGCCACAAAGCUUGAGAGCAUCUUCGGAUGCAGAGGCGGCAGCCUUCGGUAGCGCGAUCGCGCCAACGUUCUCAACUAUGACACGCAAAACGCGUGCUCCGUUGAAUGGGGUUUAUCAUG
The “polymerase ribozyme fitness (log ratio)” value of the first is higher: -1.47 for the first, at most -4.2 for the second.

In the case of GGAUCUUCUCGAUCUAACAAAAAAGACAAAUCUGCCACAAAGCUUGAGAGCAUCUUCGGAUGCAGAGGCGGCAGCCUUCGGGGGCGCGAUAGCGCCAAGGUUCUCAACUAUGACACGCAAAACGCGUGCUCCGUUGAAUGGAGUUUAUCAUG, the “polymerase ribozyme fitness (log ratio)” value is reported as -0.787.
